Experiment [1] has as its target MCR-1蛋白. The experiment can be described thus: double-antibody sandwich ELISA; 1HD4 coated at 0.2 mg/ml as capture, HRP-labelled 1JA9 as detection, OD450. (In general: ELISA stands for enzyme-linked immunosorbent assay.)
The target of experiment [2] is MCR-1蛋白. The experiment can be described thus: indirect ELISA; MCR-1 coated at 0.2 ug/mL; purified antibody (1 mg/ml) diluted two-fold from 1:1000; goat anti-mouse secondary.

B1: 鼠抗MCR-1蛋白单克隆抗体 1JA9 (antibody, V domains shown)
VH: VKLQESGPELVKPGASVKMSCRTSGYTFTSYIMHWVKQKPGQGLEWIGYFNPYTDGSKYNEMFNGKATLSSDKSSGTAYMEFSSLTSEDSAVYYCARGPYGNYAMDYWGQGTSVTVSA
VL: EILLTQTPLSLPVSLGDQASISCRSSQNIVHSYGNPSLEWYLQKPGQSPKLLIYKVSNRFSGVPDRFSGSGSGTDFTLKISRVEAEDLGVYYCFQASHVPWTFGGGTKLEIKR
With B1, in experiment [1], the 检测抗原灵敏度 (dilution factor) (dilution factor (1:x)) amounted to 5.12e+06. Moreover, the 效价 (ELISA titer, dilution of 1 mg/ml antibody) (dilution factor (1:x)) in experiment [2] was greater than 1.28e+06.

B2: 鼠抗MCR-1蛋白单克隆抗体 1HD4 (antibody, V domains shown)
VH: VKLQESGPELVKPGASVKVSCKASGYIFTCCKMYWVKQSHGKSLEWIGYFDPYNGDTSSNQKFKGKVTLTVDKSSSTAYMFLNSLTSEDSAVYYCASWLQNYYAMDYWGQGTSVTVSS
VL: DVQMTQTTSSLSASLGDRVTISCRASQDISNYLNWYQQKPDGTVKLLIYYTSRLHSGVPSRFSGSGSGADYSLTISNLEEEDIATYFCQQGNTFPYTFGGGTKLEIK
Consider B2, for which the 效价 (ELISA titer, dilution of 1 mg/ml antibody) (dilution factor (1:x)) in experiment [2] was greater than 1.28e+06.

The values are drawn from patent publication CN114317455A.
